Results published in patent US20210388087A1.
Changes are numbered by the printed parent chain. Names may count otherwise. One block for each binder: values may come before it.

Columns and labels:
[1] = target: Human CD3eg linker (human); assay: affinity relative to template H183/L072, single-mutation scan
[2] = target: CD3 epsilon homodimer protein (UniProt P07766); assay: SPR, antibody over immobilised CD3e homodimer
[3] = target: Human CD3eg linker (human); assay: SPR (Biacore T200), 37 degrees C, antibody captured by anti-human Fc on CM4 chip, recombinant human CD3 as analyte, 1:1 model
[4] = target: T1, Human CD3eg linker (human); assay: SPR Biacore T200, 25 C, Ab captured on anti-human Fc, antigen as analyte; conditions: remark: other sources report otherwise
T1 chain: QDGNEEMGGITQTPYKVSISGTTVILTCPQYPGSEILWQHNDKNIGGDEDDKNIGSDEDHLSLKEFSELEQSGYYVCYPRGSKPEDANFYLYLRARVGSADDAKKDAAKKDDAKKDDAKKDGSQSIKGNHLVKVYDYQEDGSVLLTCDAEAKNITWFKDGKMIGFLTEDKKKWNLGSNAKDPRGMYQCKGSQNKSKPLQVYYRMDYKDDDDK

CD3 epsilon homodimer protein, sequence (P07766 23-126): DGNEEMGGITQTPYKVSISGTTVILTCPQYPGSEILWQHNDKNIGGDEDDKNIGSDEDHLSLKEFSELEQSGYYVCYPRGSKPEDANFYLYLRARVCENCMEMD

- fold change of affinity for CD3 [1]: 0 fold
B1: H183/L072 with T92Y (Kabat) in VL dBBDu072L (antibody, name in Kabat numbering, V domains shown)
VH: QVQLVESGGGLVQPGRSLRLSCAASGFTFSNAWMHWVRQAPGKGLEWVAQIKDKGNAYAAYYAPSVKGRFTISRDDSKNSIYLQMNSLKTEDTAVYYCHYVHYASASTVLPAFGVDAWGQGTTVTVSS
VL: DIVMTQSPLSLPVTPGEPASISCQASQELVHMNRNTYLHWYQQKPGQAPRLLIYKVSNRFPGVPDRFSGSGSGTDFTLKISRVEAEDVGVYYCAQGYSVPFTFGQGTKLEIK

- KD ratio to GLS3000 [2]: 4460
B2: CE115HA000/GLS3000 N28D (antibody, IgG1, name in Kabat numbering, V domains shown)
VH: QVQLVESGGGVVQPGRSLRLSCAASGFTFSNAWMHWVRQAPGKGLEWVAQIKAKSNNYATYYAESVKGRFTISRDDSKNSLYLQMNSLKTEDTAVYYCRYVHYGAYYGVDAWGQGTTVTVSS
VL: B1 VL with Q24R, A25S, E28S, M32S, N33D, P61S, A94G, Y97T, S98Q, F101Y

- KD ratio to GLS3000 [2]: 13600
B3: CE115HA000/GLS3000 H27dD (antibody, IgG1, name in Kabat numbering, V domains shown)
VH: B2 VH
VL: B1 VL with Q24R, A25S, E28S, H31D, M32S, P61S, A94G, Y97T, S98Q, F101Y

- fold change of affinity for CD3 [1]: 0 fold
B4: H183/L072 with P95Y (Kabat) in VL dBBDu072L (antibody, name in Kabat numbering, V domains shown)
VH: B1 VH
VL: B1 VL with Y97T, P100Y

- Kd [3]: 17.5 nM
- koff [3]: 0.00147 s⁻¹
- kon [3]: 83700 M⁻¹ s⁻¹
B5: Ctrl/Ctrl × CD3 trispecific antibody (antibody, part only; not given: control Fvs, constant regions, Fc, V domains shown, not shown: another chain or arm of the molecule; a dimerising Fc or GST; large carriers)
VH: QVQLVESGGGLVQPGRSLRLSCAASGFTFSNAWMHWVRQAPGKGLEWVAQIKDRANSYNTYYAESVKGRFTISRDDSKNSIYLQMNSLKTEDTAVYYCRYVHYTTYAGSSFSYGVDAWGQGTTVTVSS
VL: B1 VL with Q24R, A25S, E28P, M32S, P61S, A94G, Y97T, S98Q, F101Y

- Kd [3]: 17.8 nM
- koff [3]: 0.00151 s⁻¹
- kon [3]: 85000 M⁻¹ s⁻¹
B6: GPC3/Ctrl × CD3 trispecific antibody (antibody, part only; not given: control Fv, constant regions, Fc, V domains shown, not shown: another chain or arm of the molecule; a dimerising Fc or GST; large carriers; small tags and cut ends)
VH 1: B5 VH
VL 1: B1 VL with Q24R, A25S, E28P, M32S, P61S, A94G, Y97T, S98Q, F101Y
VH 2: QVQLVQSGAEVKKPGASVTVSCKASGYTFTDYEMHWIRQPPGEGLEWIGAIDGPTPDTAYSEKFKGRVTLTADKSTSTAYMELSSLTSEDTAVYYCTRFYSYTYWGQGTLVTVSS
VL 2: B1 VL with Q24R, A25S, E28P, M32S, P61S, A94G, Y97T, S98Q, F101Y

- KD ratio to GLS3000 [2]: 72100
B7: CE115HA000/GLS3000 G91S (antibody, IgG1, name in Kabat numbering, V domains shown)
VH: B2 VH
VL: B1 VL with Q24R, A25S, E28S, M32S, P61S, A94G, G96S, Y97T, S98Q, F101Y

- Kd [4]: 2280 nM
- koff [4]: 0.101 s⁻¹
- kon [4]: 44300 M⁻¹ s⁻¹
B8: H1647L0581 (antibody, V domains shown)
VH: B1 VH with T28K, A32T, M34F, K54Y, G55Y, A57D, V109L, F113E
VL: B1 VL with A25P, L29V, Y97T, V99H

- KD ratio to GLS3000 [2]: 85800
B9: CE115HA000/GLS3000 H34R (antibody, IgG1, name in Kabat numbering, V domains shown)
VH: B2 VH
VL: B1 VL with Q24R, A25S, E28S, M32S, H39R, P61S, A94G, Y97T, S98Q, F101Y
